Test results from the DeepSol protein solubility set.

Assay: soluble on expression in E. coli; label from the status in PepcDB or PDB records

Sequence | soluble on expression in E. coli
AVPTVVGIPDGTAVVGRSFRVSIPTDLIASSGEIIKVSAAGKEALPSWLHWDPHSHILEGLPLDTDKGVHYISVSAARLGANGSHVPQTSSVFSIEVYPEDHNEPQSVRAASSDPGEVVPSACAADEPVTVLTVILDADLTKMTPKQRIDLLNRMQSFSEVELHNMKLVPVVNNRLFDMSAFMAGPGNAKKVVENGALLSWKLGCSLNQNSVPDIRGVETPAREGAMSAQLGYPVVGWHIANKKPT | soluble
MLRVRCLRGGSRGAEAVHYIGSRLGRTLTGWVQRTFQSTQAATASSRNSCAADDKATEPLPKDCPVSSYNEWDPLEEVIVGRAENACVPPFTIEVKANTYEKYWPFYQKQGGHYFPKDHLKKAVAEIEEMCNILKTEGVTVRRPDPIDWSLKYKTPDFESTGLYSAMPRDILIVVGNEIIEAPMAWRSRFFEYRAYRSIIKDYFHRGAKWTTAPKPTMADELYNQDYPIHSVEDRHKLAAQGKFVTTEFEPCFDAADFIRAGRDIFAQRSQVTNYLGIEWMRRHLAPDYRVHIISFKDPNPMHIDATFNIIGPGIVLSNPDRPCHQIDLFKKAGWTIITPPTPIIPDDHPLWMSSKWLSMNVLMLDEKRVMVDANEVPIQKMFEKLGITTIKVNIRNANSLGGGFHAWTCDVRRRGTLQSYLD | soluble
QKPYKETYGISHITRHDMLQIPEQQKNEKYQVPEFDSSTIKNISSAKGLDVWDSWPLQNADGTVANYHGYHIVFALAGDPKNADDTSIYMFYQKVGETSIDSWKNAGRVFKDSDKFDANDSILKDQTQEWAGSATFTSDGKIRLFYTDFSGKHYGKQTLTTAQVNVSASDSSLNINGVEDYKSIFDGDGKTYQNVQQFIDEGNYSSGDNHTLRDPHYVEDKGHKYLVFEANTGTEDGYQGEESLFNKAYYGKSTSFFRQESQKLLQSDKKRTAELANGALGMIELNDDYTLKKVMKPLIASNTVTDEIERANVFKMNGKWYLFTDSRGSKMTIDGITSNDIYMLGYVSNSLTGPYKPLNKTGLVLKMDLDPNDVTFTYSHFAVPQAKGNNVVITSYMTNRGFYADKQSTFAPSFLLNIKGKKTSVVKDSILEQGQLTVN | soluble
MGHHHHHHSHMTIYDQHMHTLYSFDSEAQLRDYLTQTKAPVVTTEHLEFDNPDDGGRDNLPDYARMKATQAALAEKFPNEFLLGIEAGYFAPADARFRQYLDNHDFDLTLLSFHHDGHYDYLDEQLITMPAKQQLEDYFERMLAGLKRFHDADVLAHFDYALRRFDITPDQLEAWGKPLLDQIFTIAVENDLALELNTKSMYRWGNAPLYDQAIAWYQAAGGHLFTIGSDAHEGPQYEANFADALAMLKRHGVKEIATYRQHQRTMVPIEPPVIDADNAY | soluble
MDDSREESQFIVDDVSKTIKEAIETTIGGNAYQHDKVNNWTGQVVENCLTVLTKEQKPYKYIVTAMIMQKNGAGLHTASSCYWNNDTDGSCTVRWENKTMYCIVSVFGLAV | soluble
MTDSPSPIDSSFDASDVATPCTVIAAKISLRNRNGLEEDQENLDSFDAFTETHETQESKNIAHGEHEEDVSNIYVDDFSKEFGDTVSSVMEPLPKPLTFARTITKVYCHLDDQEHPYMVEVHVPPDCITLRDVKRKLMRTNFKYYCIALDPDTGLEVKAEVRDDSRRLYPLKNGRFELYLLTVEGSVHSDTSSGRHRRKQDGSSKGSSGSREYLRAAHHYDNPTPFSDDESQASSLPTYVKKAHAYNRKHAPQAYERHLPHMKHNNRHNHHRQNHYEESTFDVTTESDDHYRDGVTYYDEDEDDSRSINTDLTSVSQVHLKQKWRQQQKEMRNKWKRMPSISTASSSFSSITESSMGLEVITVRLNLETIPLGMTPSGHTNARGDAGLYVGDIQDRGAVALDGRIDIGDMIVGINEISLGNYSNKEAVQLLREAVQRQYLTLTIAKTGDPKQNAFPRNPRAEPIRPIDPNEWVKHATNAMKAMPSISEGSGLDIKDRYWFKIPIPMSFLGTDLVEWLVKHVQGLETKKKAREFAEEMLKLGYIRPGVGKQSFTKECYYVMGDECADYTQLRGPDGGYKYPQSHASSASGHSSNNLIFPPSMYPPQPPTAGAVQSSKFEGREMIREVKRVGVVEEAREGTSNYHGSLHHSAVGLV | soluble
MGSDKIHHHHHHMPRQMRPDIADIRTGADLRQWYWRKDELVAHARTLGLKRSGAKFTILDRIAHFLDTGARDLPEAPAPKPTSDFDWHSAKLTPDTILTDSYKNTQNVRRFFKAQLGPRFAFSIPLMAWLKENSGKTLSDACAVWRDLQAERRRPGWQSDIKGHNQFNQYTRDFLAAHPDLGMDDVRRVWARKIQQPSPDGRHIYEPSDLDL | not soluble
MLEFDTTQDQLANIKVIGVGGGGNNAVNRMIEHGVQGVDFIAVNTDAQALNLSKAETKMQIGGKLTRGLGAGANPEVGKKAAEESKEQIQEALRGADMVFVTAGMGGGTGTGAAPVVAQVAKELGALTVGVVTRPFTFEGRKRATQAASGIAAFKENVDTLIVIPNDRLLEIVDKNTPMLEAFREADNVLRQGVQGISDLIATPGLINLDFADVKTIMSNRGSALMGIGSGNGENRAAEAAKKAISSPLLETSIDGAQGVIMNITGGANLSLYEVQEAADIVASASDPEVNMIFGSVINEGLKDDIVVTVIATGFDDSIATQPPKPIIRPNVNHTQQQQQPVAQPPKQREVKREMKREEPVVHERHSDSDSDDIDIPAFLRNRRRR | not soluble
MQAINPNWNVPKNIHAFTTTREGGVSLAPYLSFNLGDHVGDNKSAVKTNRTLLVEKFGLPQTPIFLTQTHSTRVIQLPYSGQNLEADAVYTNVPNQVCVVMTADCLPVLFTTTSGNEVAATHAGWRGLCDGVLEETVKYFQAKPEDIIAWFGPAIGPKAFQVGIDVVEKFVVVDEKAKLAFQPDAIEEGKYLSNLYQIATQRLNNLGITQIYGGNHCTFNEKEKFFSYRRDNQTGRMASVIWFE | not soluble
MDAIFLKLDNIKGESQVEGFEDQIEIMSYSHNVAMQVNNDVSLTERTSGRAHVGEMSLTKFVDLATPVLNEYCCSGRLIRTAVLTLCRNDDGKMRSLIVYTLTNVLISQLSVSGGAGGKPVETMSLNFTKIEWQITAEKSDGAQQESRTSVWDLAMNQIGK | not soluble
MGINVRAVEIQDARAIHRICIQDNVLPYMVFLPSMRVEAMENRIRNLAPNQFEFVAEYDGEVVGFVGLTQSPGRRSHSGDLFIGVDSEYHNKGIGRALLTKMLDLADNWLMLERVELGVLETNPKAKALYEKFGFVEEGVKIGNLKAHGKFINEIMMSRFRPNGLIVHNE | not soluble
MQTSDLLKKVRRIEIKARGLSRQIFAGQYHSAFRGRGMAFSEVREYTVGDDVRDIDWNVTARYARPYVKVFEEERELTVMLMVDMSGSLSFGTEVETKRELTAEVAATLAFSAIQNNDKIGVLFFTDRIEKYVPPAKGKKHILYIIRELLEFRPQSRATDLSVPLSYLTRLVKKRCTAFLISDFQSEKDSYEKTLLMSARKHDIVAIRIFDRREADLPNVGLMRFRDAETGQTHWVDTADSSVRKAYADAYERRQVALAVLLKRCGVDTTEIRTGQDFVQQLLILFKKRS | not soluble
GAMGPVDEQWIEILRIQALCARYCLTINTQDGEGWAGCFTEDGAFEFDGWVIRGRPALREYADAHARVVRGRHLTTDLLYEVDGDVATGRSASVVTLATAAGYKILGSGEYQDRLIKQDGQWRIAYRRLRNDRLVSDPSVAVNVADADVAAVVGHLLAAARRLGTQMSDT | soluble
MKVDGKHTRTIWLEADGWTVGTIDQRRLPHDYVVVKLTSSDDAADAIRTMLVRGAPLIGATAAYGMALAMREDASDAGLDAAYAKLVATRPTAINLKWALDEMRRALAPVQPADRVAAAYRRAGEIADEDVAINQAIGASGLKLIEAIAATKKPGERVNVLTHCNAGWLATVDWGTATAPIYQAFDAGIPIHVYADETRPRNQGASLTAWELGHHGVDHTVIPDNTGGHLMQHGLVDIVIVGTDRVTADGDVCNKIGTYLKALAAADNKVPFYVALPSPTIDFTIHDGVREIPIEQREAAEVTDMTGRTNDGRIETVRIVPQGSKVANYGFDVTPARLVTGLITERGVLKADRAALAAAFPERVAQAKELLRASAAALEHHHHHH | soluble
MGSDKIHHHHHHMKRVSVVILNWNGVDMLRKFIPSVMDNSVGEGIEICVADNASSDGSLEMLRSEFPVVRLIELDQNYGFAEGYNRALEQVDAEYVVLLNSDVEVTPHWLEPLLDYMDTHSGTVACQPKLLSWHNKEYFEYAGASGGFIDRYGYPFCRGRIFDVVEKDCGQYDTITEVMWVTGAALFIRLADYREVGGLDGHFFAHMEEIDLCWRLRSRGKKLVCIPQSVVYHVGGATLKKENPRKTFLNFRNNLLMLYKNLPDKELEHVLFIRGILDRVAALVFYLKKDRANARAVMQARREFEDIRYSFAASRIENMMKSTDEIIPERTHFSIVMKYYLLGKKHFSQLKLF | not soluble
MGSDKIHHHHHHMSLLSVEHLSHGFADKELYEDANFELNKEDHMGIVGQNGAGKSTLIKILTGETLPDKGRIIWQNKVTYGYLDQYADIPKEDTLYEFLTTAYAELFRQRDLMEKYYADYAENLDDKLLEKAGRIQENLDANNFYDIDTEINRVMTGLGLDDIGKDHIVSEMSGGQRSKIILAKLLLQNPDVLILDEPTNYLDTAHISWLADYLNGFEGAFMVISHDYDFLQKVTNCICDVSFNKITKYRGDFQSAMRQKDARKEAQLKAFEKQQVVIEKAENFIRKNKAGQRSTMAKSREKMLNRMEKIDPPSENLKGHFDFPYLDTGSQNAVAVNKLAVGYGKKQLLEPVTFSMSAGEKVAFSGFNGAGKSTLIKSILGVIPALGGEAHFSPSAKVNYFTQELIWDNPKLTPLETIQNQYPKMLPKTIRTKLAKCGINAADTMKPMKQLSGGEQTKVKLALMELIDSNFLIMDEPTNHLDDETKRALSEALQRFKGNLIVVSHEDSFYSQWIDKEINVEKLRLDRE | not soluble
MKTSANIATSASGNGLADVLERVLDKGVVIAGDISVSIASTELLNIKIRLLISSVERAKEIGINWWESDPYFSSQNNSLVQANEKLLERVASLESEIKALRSN | not soluble
MQFNAVLVKLLDELEVRLRAAQLWQATPPSSQALVSQEPFAVDTLLPHEWLQWIFLPKMQQAIAQNAVPRGFALEPYFSEVWQGEARYQAVLAVIQQIDKVCQ | not soluble
MFQWLYDVLWLLAPIWIRRYLDKRSGSAPAYRAHRDERFGKPHPNPVTGAVWIHAVSVGETRAAQPLIRELRRRFPDAPLLMTQMTPTGRETAQVLFPDAQCRYLPYDKKTWVRQFLREHRPMFGILMETEIWPNLMKECRRAGVPLFLANARLSEKSLNGYLKVRRLIRPAAASLTGCLAQTEADAARLAKLGAASVQVCGNTKYDLMPSEDMKTLAGQFEKRIGGRPVAVCGSTRVYRGEDEAEKLLAAWQQYRGDALLAVVPRHPEHFQTTFETAKRFGFKVQRRSDGLPVEPDTQVWVGDSMGELYAYYLCADVAFVGGSLVGSGCQNIIEPLSCGVTTIFGFSTYNFSEACRHALASGAAVQVESADAWREAVEKTLSGEGGGMQMQARVDGFIAQHRGAGARIAEAVREAVCGHRGRLEHHHHHH | not soluble
MEKETLFIAFSTQKGGAGKTTLTVLVASYLHYVKGMNVAVVDCDYPQHSIAEMRKRDLKTVMEDEHYKLMAYRQLQRIRKKAYPVAESTAEDAVTKADELLEKMPETDIVFFDLPGTVNSTGVLNTLVNMDYVFSPIAADRVVMESTLRFASRLNDTLIATGKTNIKGLYLLWNMVDGREKSELYKVYEQVIGELGLKVLKTFLPDSKRFRRELTGGHRALFRSTLFPADGTLVKGSNLKEITEELLSIIRK | not soluble
MDELFTESAKAVLAIAQEEAKYFRHQSVGSEHLLLALVLEPNGIAGKTLRQLNTDTEDIREEIEHLSGYGTMQSPMGNNNLYLPYSPRAKQIFAYAGDEAKRLGAQKIGTEHLLLGLLRDEEILASRILVNLGLSLSKMRQLLLKKMG | soluble
